Where two headings read alike, the source gives them in different places. Each block holds one binder with its values, some of them ahead of it.
Tests used:
[1] = target: T1, Her2 ECD (amino acids 1 to 629 of matured HER2 with C-terminal avi-tag and His-tag) (human, UniProt P04626 23-652); test: SPR, Ab captured, Her2 analyte
T1 construct: also called purified Her2

[2] = target: T1, Her2 ECD (amino acids 1 to 629 of …); test: SPR, Ab captured, Her2 analyte; remark: listed apart in the source
[3] = target: T1, Her2 ECD (amino acids 1 to 629 of …); test: SPR, Fab from bacterial supernatant captured, Her2 analyte
[4] = target: T1, Her2 ECD (amino acids 1 to 629 of …); test: SPR, Ab captured, Her2 analyte; remark: listed apart in the source
[5] = target: T2, human transferrin receptor (recombinant, for surface plasmon resonance) (human, UniProt P02786 89-760); test: SPR
T2 construct: also called huTfR; human transferrin receptor-biotinylated
T2 sequence (P02786 89-760 limits assumed): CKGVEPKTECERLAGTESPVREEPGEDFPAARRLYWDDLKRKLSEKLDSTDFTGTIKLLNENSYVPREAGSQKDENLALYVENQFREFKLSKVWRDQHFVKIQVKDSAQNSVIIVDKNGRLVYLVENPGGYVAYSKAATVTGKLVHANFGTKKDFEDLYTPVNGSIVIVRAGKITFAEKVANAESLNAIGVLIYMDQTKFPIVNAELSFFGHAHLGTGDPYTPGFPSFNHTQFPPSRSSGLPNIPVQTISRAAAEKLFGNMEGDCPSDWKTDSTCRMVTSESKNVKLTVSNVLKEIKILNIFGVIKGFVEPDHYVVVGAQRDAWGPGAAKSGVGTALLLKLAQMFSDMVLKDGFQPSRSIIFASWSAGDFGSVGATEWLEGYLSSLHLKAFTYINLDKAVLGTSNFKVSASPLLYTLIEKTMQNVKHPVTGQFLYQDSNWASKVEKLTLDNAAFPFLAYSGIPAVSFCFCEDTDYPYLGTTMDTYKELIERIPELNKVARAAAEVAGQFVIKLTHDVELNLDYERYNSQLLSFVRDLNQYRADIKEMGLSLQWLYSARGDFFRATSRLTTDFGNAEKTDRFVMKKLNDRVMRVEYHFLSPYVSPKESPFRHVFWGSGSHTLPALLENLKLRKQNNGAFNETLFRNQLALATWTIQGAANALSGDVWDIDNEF

Kd [1]: 26.7 nM
koff [1]: 0.00173 s⁻¹
kon [1]: 64700 M⁻¹ s⁻¹
Kd [2]: 4.96 nM
koff [2]: 0.00209 s⁻¹
kon [2]: 422000 M⁻¹ s⁻¹
B1: Pertuzumab HC x Pertuzumab (Tras.L3) LC (antibody, V domains shown)
VH: EVQLVESGGGLVQPGGSLRLSCAASGFTFTDYTMDWVRQAPGKGLEWVADVNPNSGGSIYNQRFKGRFTLSVDRSKNTLYLQMNSLRAEDTAVYYCARNLGPSFYFDYWGQGTLVTVSS
VL: DIQMTQSPSSLSASVGDRVTITCKASQDVSIGVAWYQQKPGKAPKLLIYSASYRYTGVPSRFSGSGSGTDFTLTISSLQPEDFATYYCQQHYTTPPTFGQGTKVEIK
notes: human IgG

Kd [1]: 1090 nM
koff [1]: 0.05 s⁻¹
kon [1]: 41900 M⁻¹ s⁻¹
Kd [2]: 72.5 nM
koff [2]: 0.0236 s⁻¹
kon [2]: 325000 M⁻¹ s⁻¹
B2: Trastuzumab HC x Pertuzumab (Tras.L3) LC (antibody, V domains shown)
VH: not shown
VL: DIQMTQSPSSLSASVGDRVTITCKASQDVSIGVAWYQQKPGKAPKLLIYSASYRYTGVPSRFSGSGSGTDFTLTISSLQPEDFATYYCQQHYTTPPTFGQGTKVEIK
notes: human IgG

Kd [3]: 3 nM
B3: Pertuzumab aff.mat. clone C8 with common light chain (Fab, V domains shown)
VH: EVQLVESGGGLVQPGGSLRLSCAASGFTFTDYTMDWVRQAPGKGLEWVADVNPNSGGSIMNRRFKGRFTLSVDRSKNTLYLQMNSLRAEDTAVYYCARNLGPSFYFDYWGQGTLVTVSS
VL: DIQMTQSPSSLSASVGDRVTITCKASQDVSTAVAWYQQKPGKAPKLLIYSASFRYTGVPSRFSGSRSGTDFTLTISSLQPEDFATYYCQQHYTTPPTFGQGTKVEIK
notes: bacterial Fab

Kd [4]: 0.202 nM
koff [4]: 5.42e-05 s⁻¹
kon [4]: 269000 M⁻¹ s⁻¹
B4: Trastuzumab HC x Pertuzumab (Tras.L3)(QM) LC (antibody, V domains shown)
VH: not shown
VL: DIQMTQSPSSLSASVGDRVTITCKASQDVSTAVAWYQQKPGKAPKLLIYSASFRYTGVPSRFSGSRSGTDFTLTISSLQPEDFATYYCQQHYTTPPTFGQGTKVEIK

Kd [3]: 1 nM
B5: Pertuzumab aff.mat. clone A1 with common light chain (Fab, V domains shown)
VH: EVQLVESGGGLVQPGGSLRLSCAASGFTFTDYTMDWVRQAPGKGLEWVADVNPNSGGSIVNQRFKGRFTLSVDRSKNTLYLQMNSLRAEDTAVYYCARNLGPWFYFDYWGQGTLVTVSS
VL: DIQMTQSPSSLSASVGDRVTITCKASQDVSTAVAWYQQKPGKAPKLLIYSASFRYTGVPSRFSGSRSGTDFTLTISSLQPEDFATYYCQQHYTTPPTFGQGTKVEIK
notes: bacterial Fab

Kd [3]: 1 nM
B6: Pertuzumab aff.mat. clone D1 with common light chain (Fab, V domains shown)
VH: EVQLVESGGGLVQPGGSLRLSCAASGFTFNDYTMDWVRQAPGKGLEWVADVNPNSGGSIYNQRFKGRFTLSVDRSKNTLYLQMNSLRAEDTAVYYCARNLGPFFYFDYWGQGTLVTVSS
VL: DIQMTQSPSSLSASVGDRVTITCKASQDVSTAVAWYQQKPGKAPKLLIYSASFRYTGVPSRFSGSRSGTDFTLTISSLQPEDFATYYCQQHYTTPPTFGQGTKVEIK
notes: bacterial Fab with Flag-tag, from supernatant

Kd [3]: 1 nM
B7: Pertuzumab aff.mat. clone B2 with common light chain (Fab, V domains shown)
VH: EVQLVESGGGLVQPGGSLRLSCAASGFTFNDYTMDWFRQAPGKGLEWVADVNPNSGGSIYNQRFKGRFTLSVDRSKNTLYLQMNSLRAEDTAVYYCARNLGPNFYFDYWGQGTLVTVSS
VL: DIQMTQSPSSLSASVGDRVTITCKASQDVSTAVAWYQQKPGKAPKLLIYSASFRYTGVPSRFSGSRSGTDFTLTISSLQPEDFATYYCQQHYTTPPTFGQGTKVEIK
notes: bacterial Fab

koff [5]: 0.000486 s⁻¹
B8: 4/94 SEQ ID NO 199 / SEQ ID NO 201 (antibody, V domains shown)
VH: QVQLQESGPGLVKPSETLSLTCTVSGFNIKDTYIHWVIQRPGKGLEWIGRIDPANGDTKSDPSLQSRVTISADTSKNQASLKLSSVTAADTAVYYCVRDYLYPYYFDFWGQGTTVTVSS
VL: KIQMTQSPSSLSASVGDRVTITCRASESVDTYVSWYQQKPGKAPKLLIYGASNRYTGVPSRFSGSGSGTDFTLTISSLQPEDFADYYCGQTYNYPLTFGQGTKLEI

koff [5]: 0.000527 s⁻¹
B9: 4/94 SEQ ID NO 199 / SEQ ID NO 207 (antibody, V domains shown)
VH: QVQLQESGPGLVKPSETLSLTCTVSGFNIKDTYIHWVIQRPGKGLEWIGRIDPANGDTKSDPSLQSRVTISADTSKNQASLKLSSVTAADTAVYYCVRDYLYPYYFDFWGQGTTVTVSS
VL: KIVLTQSPGTLSLSPGERATLSCRASESVDTYVSWYQQKPGQAPRLLIYGASNRYTGVPDRFSGSGSGTDFTLTISRLEPEDFADYYCGQTYNYPLTFGQGTKLEI

koff [5]: 0.000274 s⁻¹
B10: 4/94 SEQ ID NO 200 / SEQ ID NO 201 (antibody, V domains shown)
VH: EVQLVESGGGLVQPGGSLRLSCAASGFNIKDTYIHWVIQAPGKGLEWVGRIDPANGDTKSDPSVQVRATISADTSKNTAYLQMNSLRAEDTAVYYCVRDYLYPYYFDFWGQGTTVTVSS
VL: KIQMTQSPSSLSASVGDRVTITCRASESVDTYVSWYQQKPGKAPKLLIYGASNRYTGVPSRFSGSGSGTDFTLTISSLQPEDFADYYCGQTYNYPLTFGQGTKLEI

koff [5]: 0.000552 s⁻¹
B11: 4/94 SEQ ID NO 199 / SEQ ID NO 209 (antibody, V domains shown)
VH: QVQLQESGPGLVKPSETLSLTCTVSGFNIKDTYIHWVIQRPGKGLEWIGRIDPANGDTKSDPSLQSRVTISADTSKNQASLKLSSVTAADTAVYYCVRDYLYPYYFDFWGQGTTVTVSS
VL: KIVLTQSPGTLSLSPGERATLSCRASESVDTYVSWYQQKPGQAPRLLIYGASNRYTGIPDRFSGSGSGTDFTLTISRLEPEDFADYYCGQTYNYPLTFGQGTKLEI

koff [5]: 0.00055 s⁻¹
B12: 4/94 SEQ ID NO 199 / SEQ ID NO 208 (antibody, V domains shown)
VH: QVQLQESGPGLVKPSETLSLTCTVSGFNIKDTYIHWVIQRPGKGLEWIGRIDPANGDTKSDPSLQSRVTISADTSKNQASLKLSSVTAADTAVYYCVRDYLYPYYFDFWGQGTTVTVSS
VL: EIVLTQSPGTLSLSPGERATLSCRASESVDTYVSWYQQKPGQAPRLLIYGASNRYTGVPDRFSGSGSGTDFTLTISRLEPEDFADYYCGQTYNYPLTFGQGTKLEI

koff [5]: 0.000232 s⁻¹
B13: 4/94 SEQ ID NO 200 / murine VL (antibody, V domains shown)
VH: EVQLVESGGGLVQPGGSLRLSCAASGFNIKDTYIHWVIQAPGKGLEWVGRIDPANGDTKSDPSVQVRATISADTSKNTAYLQMNSLRAEDTAVYYCVRDYLYPYYFDFWGQGTTVTVSS
VL: KIVMTQSPKSMSMSVGERVTLNCRASESVDTYVSWYQQKPEQSPELLIYGASNRYTGVPDRFTGSGSATDFTLTISSVQAEDLADYYCGQTYNYPLTFGAGTKLELKR

koff [5]: 0.000299 s⁻¹
B14: 4/94 SEQ ID NO 200 / SEQ ID NO 207 (antibody, V domains shown)
VH: EVQLVESGGGLVQPGGSLRLSCAASGFNIKDTYIHWVIQAPGKGLEWVGRIDPANGDTKSDPSVQVRATISADTSKNTAYLQMNSLRAEDTAVYYCVRDYLYPYYFDFWGQGTTVTVSS
VL: KIVLTQSPGTLSLSPGERATLSCRASESVDTYVSWYQQKPGQAPRLLIYGASNRYTGVPDRFSGSGSGTDFTLTISRLEPEDFADYYCGQTYNYPLTFGQGTKLEI

koff [5]: 0.000306 s⁻¹
B15: 4/94 SEQ ID NO 200 / SEQ ID NO 208 (antibody, V domains shown)
VH: EVQLVESGGGLVQPGGSLRLSCAASGFNIKDTYIHWVIQAPGKGLEWVGRIDPANGDTKSDPSVQVRATISADTSKNTAYLQMNSLRAEDTAVYYCVRDYLYPYYFDFWGQGTTVTVSS
VL: EIVLTQSPGTLSLSPGERATLSCRASESVDTYVSWYQQKPGQAPRLLIYGASNRYTGVPDRFSGSGSGTDFTLTISRLEPEDFADYYCGQTYNYPLTFGQGTKLEI

koff [5]: 0.000326 s⁻¹
B16: 4/94 SEQ ID NO 200 / SEQ ID NO 209 (antibody, V domains shown)
VH: EVQLVESGGGLVQPGGSLRLSCAASGFNIKDTYIHWVIQAPGKGLEWVGRIDPANGDTKSDPSVQVRATISADTSKNTAYLQMNSLRAEDTAVYYCVRDYLYPYYFDFWGQGTTVTVSS
VL: KIVLTQSPGTLSLSPGERATLSCRASESVDTYVSWYQQKPGQAPRLLIYGASNRYTGIPDRFSGSGSGTDFTLTISRLEPEDFADYYCGQTYNYPLTFGQGTKLEI

From patent US20180291110A1 (Hoffmann-La Roche, published 2018)
